Laboratory results: patent US20240010721A1 (HARBOUR BIOMED SHANGHAI, published 2024)

Legend:
[1] = biological target: T1, human ROR1 (hROR1) on cells (human, UniProt Q01973 30-937); assay: FACS, Panc-1 cells; note: test concentration or dose not given here
T1 construct: whole, on cells; the cell line is named under assay; also called HEK293T-hROR1; 293T-hROR1

[2] = biological target: T1, human ROR1 (hROR1) on cells; assay: FACS, HEK293T-hROR1 cells; note: test concentration or dose not given here
[3] = biological target: ROR1 (antigen of the KD determination and of the Octet dissociation measurement) (UniProt Q01973 30-403, limits assumed); assay: Octet, antigen form not stated
Chain of ROR1 (antigen of the KD determination and of the Octet dissociation measurement) (Q01973 30-403 limits assumed): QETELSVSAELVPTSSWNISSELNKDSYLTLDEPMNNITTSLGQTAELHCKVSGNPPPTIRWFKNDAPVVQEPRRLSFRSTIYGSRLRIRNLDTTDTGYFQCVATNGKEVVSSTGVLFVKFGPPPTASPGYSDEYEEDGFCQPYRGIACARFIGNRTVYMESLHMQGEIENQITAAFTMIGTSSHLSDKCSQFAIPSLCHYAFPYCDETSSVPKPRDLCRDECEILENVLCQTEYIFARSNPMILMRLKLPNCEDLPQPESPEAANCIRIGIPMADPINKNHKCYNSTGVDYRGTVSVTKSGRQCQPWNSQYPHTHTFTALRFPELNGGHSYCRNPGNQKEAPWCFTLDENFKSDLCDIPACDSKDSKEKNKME

T1 sequence (Q01973 30-937): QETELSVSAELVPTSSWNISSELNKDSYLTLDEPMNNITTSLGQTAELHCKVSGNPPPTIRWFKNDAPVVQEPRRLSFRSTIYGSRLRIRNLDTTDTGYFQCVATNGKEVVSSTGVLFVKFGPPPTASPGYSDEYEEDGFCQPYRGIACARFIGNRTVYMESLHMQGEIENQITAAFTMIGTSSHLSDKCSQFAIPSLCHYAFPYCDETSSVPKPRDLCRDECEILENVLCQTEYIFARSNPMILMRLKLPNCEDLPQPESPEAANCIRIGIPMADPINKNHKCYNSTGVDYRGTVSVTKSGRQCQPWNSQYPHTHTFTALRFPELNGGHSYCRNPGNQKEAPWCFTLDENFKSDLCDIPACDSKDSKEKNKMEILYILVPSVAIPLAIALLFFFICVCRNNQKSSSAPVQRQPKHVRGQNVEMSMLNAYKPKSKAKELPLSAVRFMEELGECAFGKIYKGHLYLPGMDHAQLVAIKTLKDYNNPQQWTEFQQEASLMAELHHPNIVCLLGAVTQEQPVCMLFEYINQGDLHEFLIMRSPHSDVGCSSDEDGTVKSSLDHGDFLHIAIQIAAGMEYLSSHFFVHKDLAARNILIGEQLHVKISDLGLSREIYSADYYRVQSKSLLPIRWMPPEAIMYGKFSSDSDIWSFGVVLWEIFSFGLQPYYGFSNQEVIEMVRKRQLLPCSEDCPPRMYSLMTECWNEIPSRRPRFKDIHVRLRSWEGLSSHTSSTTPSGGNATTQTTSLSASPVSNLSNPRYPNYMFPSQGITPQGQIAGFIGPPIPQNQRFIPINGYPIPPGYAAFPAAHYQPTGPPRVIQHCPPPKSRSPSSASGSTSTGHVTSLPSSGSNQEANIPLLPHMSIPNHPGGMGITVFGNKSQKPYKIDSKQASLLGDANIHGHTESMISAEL

MFI [1] | MFI [2] | Response [3] | koff [3] | Binder
6490 MFI | 44200 MFI | 0.244 | 0.000601 s⁻¹ | PR002577 (antibody, human IgG1, kappa, V domains shown, PR001364 variant: VH G55A; hIgG1; also called anti-ROR1 1015M3-D8(H: G55A) hIgG1) VH: EVQLLESGGGVVQPGRSLRLSCAASGFTFSSFGMHWVRQAPGKGLEWVAVIWYDASDKDYADSVKGRFTISRDTSKNTLYLQMNSLRAEDTAVYYCAREQARSFDLWGRGTLVTVSS VL: DIVMTQSPSTLSASVGDRVTITCRASQTINNWLAWYQQKPGKAPKLLIYKASSLESGVPSRFSGSGSGTEFTLTISSLQPDDFATYYCQQYNSYSPMYTFGQGTKVEIKR
2470 MFI | 40200 MFI | 0.866 | 9.83e-05 s⁻¹ | PR002576 (antibody, human IgG1, kappa, V domains shown, PR001364 variant: VH D54E, VL S93A; hIgG1; also called anti-ROR1 1015M3-D8(H: D54E; L: S93A) hIgG1) VH: EVQLLESGGGVVQPGRSLRLSCAASGFTFSSFGMHWVRQAPGKGLEWVAVIWYEGSDKDYADSVKGRFTISRDTSKNTLYLQMNSLRAEDTAVYYCAREQARSFDLWGRGTLVTVSS VL: DIVMTQSPSTLSASVGDRVTITCRASQTINNWLAWYQQKPGKAPKLLIYKASSLESGVPSRFSGSGSGTEFTLTISSLQPDDFATYYCQQYNAYSPMYTFGQGTKVEIKR
5870 MFI | 45300 MFI | 0.485 | 0.000172 s⁻¹ | PR002574 (antibody, human IgG1, kappa, V domains shown, PR001364 variant: VH D54E; hIgG1; also called anti-ROR1 1015M3-D8(H: D54E) hIgG1) VH: EVQLLESGGGVVQPGRSLRLSCAASGFTFSSFGMHWVRQAPGKGLEWVAVIWYEGSDKDYADSVKGRFTISRDTSKNTLYLQMNSLRAEDTAVYYCAREQARSFDLWGRGTLVTVSS VL: DIVMTQSPSTLSASVGDRVTITCRASQTINNWLAWYQQKPGKAPKLLIYKASSLESGVPSRFSGSGSGTEFTLTISSLQPDDFATYYCQQYNSYSPMYTFGQGTKVEIKR
3250 MFI | 33800 MFI | 0.828 | 0.000112 s⁻¹ | PR002575 (antibody, human IgG1, kappa, V domains shown, PR001364 variant: VH D54E, VL N92Q; hIgG1; also called anti-ROR1 1015M3-D8(H: D54E; L: N92Q) hIgG1) VH: EVQLLESGGGVVQPGRSLRLSCAASGFTFSSFGMHWVRQAPGKGLEWVAVIWYEGSDKDYADSVKGRFTISRDTSKNTLYLQMNSLRAEDTAVYYCAREQARSFDLWGRGTLVTVSS VL: DIVMTQSPSTLSASVGDRVTITCRASQTINNWLAWYQQKPGKAPKLLIYKASSLESGVPSRFSGSGSGTEFTLTISSLQPDDFATYYCQQYQSYSPMYTFGQGTKVEIKR
7050 MFI | 43100 MFI | 0.783 | 0.000199 s⁻¹ | PR002579 (antibody, human IgG1, kappa, V domains shown, PR001364 variant: VH G55A, VL S93A; hIgG1; also called anti-ROR1 1015M3-D8(H: G55A; L: S93A) hIgG1) VH: EVQLLESGGGVVQPGRSLRLSCAASGFTFSSFGMHWVRQAPGKGLEWVAVIWYDASDKDYADSVKGRFTISRDTSKNTLYLQMNSLRAEDTAVYYCAREQARSFDLWGRGTLVTVSS VL: DIVMTQSPSTLSASVGDRVTITCRASQTINNWLAWYQQKPGKAPKLLIYKASSLESGVPSRFSGSGSGTEFTLTISSLQPDDFATYYCQQYNAYSPMYTFGQGTKVEIKR
3710 MFI | 37200 MFI | 0.723 | 8.84e-05 s⁻¹ | PR002573 (antibody, human IgG1, kappa, V domains shown, PR001364 variant: VL S93A; hIgG1; also called anti-ROR1 1015M3-D8(L: S93A) hIgG1) VH: EVQLLESGGGVVQPGRSLRLSCAASGFTFSSFGMHWVRQAPGKGLEWVAVIWYDGSDKDYADSVKGRFTISRDTSKNTLYLQMNSLRAEDTAVYYCAREQARSFDLWGRGTLVTVSS VL: DIVMTQSPSTLSASVGDRVTITCRASQTINNWLAWYQQKPGKAPKLLIYKASSLESGVPSRFSGSGSGTEFTLTISSLQPDDFATYYCQQYNAYSPMYTFGQGTKVEIKR
3930 MFI | 43000 MFI | 0.606 | 0.000104 s⁻¹ | PR002572 (antibody, human IgG1, kappa, V domains shown, PR001364 variant: VL N92Q; hIgG1; also called anti-ROR1 1015M3-D8(L: N92Q) hIgG1) VH: EVQLLESGGGVVQPGRSLRLSCAASGFTFSSFGMHWVRQAPGKGLEWVAVIWYDGSDKDYADSVKGRFTISRDTSKNTLYLQMNSLRAEDTAVYYCAREQARSFDLWGRGTLVTVSS VL: DIVMTQSPSTLSASVGDRVTITCRASQTINNWLAWYQQKPGKAPKLLIYKASSLESGVPSRFSGSGSGTEFTLTISSLQPDDFATYYCQQYQSYSPMYTFGQGTKVEIKR
4560 MFI | 49600 MFI | 0.638 | 0.000113 s⁻¹ | PR002571 (antibody, human IgG1, kappa, V domains shown, PR001356 variant: VH G55A; hIgG1; also called anti-ROR1 1015M2-E6(H: G55A) hIgG1) VH: QVQLVESGGGVVQPGRSLRLSCAASGFTFSSYGMHWVRQAPGKGLEWVAVAWYDAVSEDYADSVKGRFTISRDNAKNTLYLQMNSLRAEDTAVYYCAREQARSFDLWGRGTLVTVSS VL: DIVMTQSPSTLSASVGDRVTITCRASQSINNWLAWYQQKPGKAPKLLIYKASSLESGVPSRFSGSGSGTEFTLTISSLQPDDFATYYCQQYKSYSPMYTFGQGTKVEIKR
6700 MFI | 45100 MFI | 0.414 | 0.000322 s⁻¹ | PR002578 (antibody, human IgG1, kappa, V domains shown, PR001364 variant: VH G55A, VL N92Q; hIgG1; also called anti-ROR1 1015M3-D8(H: G55A; L: N92Q) hIgG1) VH: EVQLLESGGGVVQPGRSLRLSCAASGFTFSSFGMHWVRQAPGKGLEWVAVIWYDASDKDYADSVKGRFTISRDTSKNTLYLQMNSLRAEDTAVYYCAREQARSFDLWGRGTLVTVSS VL: DIVMTQSPSTLSASVGDRVTITCRASQTINNWLAWYQQKPGKAPKLLIYKASSLESGVPSRFSGSGSGTEFTLTISSLQPDDFATYYCQQYQSYSPMYTFGQGTKVEIKR

The remaining lines, values behind:

Binder | MFI [1] | MFI [2] | Response [3] | koff [3]
PR002562 (antibody, human IgG1, kappa, V domains shown, PR001354 variant: VL N92Q; hIgG1; also called anti-ROR1 1015M2-C9(L: N92Q) hIgG1) VH: QVQLVQSGGGVVQPGRSLRLSCAASGFTFSSYGMHWVRQAPGKGLEWVAIMWYDGSDKDYADSVKGRFTISRDTSKNTLYLQMNSLRAEDTAVYYCAREQARSFDLWGRGTLVTVSS VL: DIVMTQSPSSLSASVGDRVTITCRASQTINNWLAWYQQKPGKAPKLLIYKASSLESGVPSRFSGSGSGTEFTLTISSLQPDDFATYYCQQYQSYSPMYTFGQGTKVEIKR | 5600 MFI | 43900 MFI | 0.629 | 0.000162 s⁻¹
PR002565 (antibody, human IgG1, kappa, V domains shown, PR001354 variant: VH D54E, VL N92Q; hIgG1; also called anti-ROR1 1015M2-C9(H: D54E; L: N92Q) hIgG1) VH: QVQLVQSGGGVVQPGRSLRLSCAASGFTFSSYGMHWVRQAPGKGLEWVAIMWYEGSDKDYADSVKGRFTISRDTSKNTLYLQMNSLRAEDTAVYYCAREQARSFDLWGRGTLVTVSS VL: DIVMTQSPSSLSASVGDRVTITCRASQTINNWLAWYQQKPGKAPKLLIYKASSLESGVPSRFSGSGSGTEFTLTISSLQPDDFATYYCQQYQSYSPMYTFGQGTKVEIKR | 6820 MFI | 46900 MFI | 0.595 | 0.000106 s⁻¹
PR002568 (antibody, human IgG1, kappa, V domains shown, PR001354 variant: VH G55A, VL N92Q; hIgG1; also called anti-ROR1 1015M2-C9(H: G55A; L: N92Q) hIgG1) VH: QVQLVQSGGGVVQPGRSLRLSCAASGFTFSSYGMHWVRQAPGKGLEWVAIMWYDASDKDYADSVKGRFTISRDTSKNTLYLQMNSLRAEDTAVYYCAREQARSFDLWGRGTLVTVSS VL: DIVMTQSPSSLSASVGDRVTITCRASQTINNWLAWYQQKPGKAPKLLIYKASSLESGVPSRFSGSGSGTEFTLTISSLQPDDFATYYCQQYQSYSPMYTFGQGTKVEIKR | 3620 MFI | 46300 MFI | 0.702 | 0.00014 s⁻¹
PR002567 (antibody, human IgG1, kappa, V domains shown, PR001354 variant: VH G55A; hIgG1; also called anti-ROR1 1015M2-C9(H: G55A) hIgG1) VH: QVQLVQSGGGVVQPGRSLRLSCAASGFTFSSYGMHWVRQAPGKGLEWVAIMWYDASDKDYADSVKGRFTISRDTSKNTLYLQMNSLRAEDTAVYYCAREQARSFDLWGRGTLVTVSS VL: DIVMTQSPSSLSASVGDRVTITCRASQTINNWLAWYQQKPGKAPKLLIYKASSLESGVPSRFSGSGSGTEFTLTISSLQPDDFATYYCQQYNSYSPMYTFGQGTKVEIKR | 7030 MFI | 41900 MFI | 0.707 | 0.000215 s⁻¹
PR002564 (antibody, human IgG1, kappa, V domains shown, PR001354 variant: VH D54E; hIgG1; also called anti-ROR1 1015M2-C9(H: D54E) hIgG1) VH: QVQLVQSGGGVVQPGRSLRLSCAASGFTFSSYGMHWVRQAPGKGLEWVAIMWYEGSDKDYADSVKGRFTISRDTSKNTLYLQMNSLRAEDTAVYYCAREQARSFDLWGRGTLVTVSS VL: DIVMTQSPSSLSASVGDRVTITCRASQTINNWLAWYQQKPGKAPKLLIYKASSLESGVPSRFSGSGSGTEFTLTISSLQPDDFATYYCQQYNSYSPMYTFGQGTKVEIKR | 6590 MFI | 43200 MFI | 0.748 | 0.000108 s⁻¹
PR002569 (antibody, human IgG1, kappa, V domains shown, PR001354 variant: VH G55A, VL S93A; hIgG1; also called anti-ROR1 1015M2-C9(H: G55A; L: S93A) hIgG1) VH: QVQLVQSGGGVVQPGRSLRLSCAASGFTFSSYGMHWVRQAPGKGLEWVAIMWYDASDKDYADSVKGRFTISRDTSKNTLYLQMNSLRAEDTAVYYCAREQARSFDLWGRGTLVTVSS VL: DIVMTQSPSSLSASVGDRVTITCRASQTINNWLAWYQQKPGKAPKLLIYKASSLESGVPSRFSGSGSGTEFTLTISSLQPDDFATYYCQQYNAYSPMYTFGQGTKVEIKR | 3760 MFI | 34500 MFI | 0.614 | 0.000207 s⁻¹
PR002570 (antibody, human IgG1, kappa, V domains shown, PR001356 variant: VH D54E; hIgG1; also called anti-ROR1 1015M2-E6(H: D54E) hIgG1) VH: QVQLVESGGGVVQPGRSLRLSCAASGFTFSSYGMHWVRQAPGKGLEWVAVAWYEGVSEDYADSVKGRFTISRDNAKNTLYLQMNSLRAEDTAVYYCAREQARSFDLWGRGTLVTVSS VL: DIVMTQSPSTLSASVGDRVTITCRASQSINNWLAWYQQKPGKAPKLLIYKASSLESGVPSRFSGSGSGTEFTLTISSLQPDDFATYYCQQYKSYSPMYTFGQGTKVEIKR | 3660 MFI | 43100 MFI | 0.472 | 0.00108 s⁻¹
PR002563 (antibody, human IgG1, kappa, V domains shown, PR001354 variant: VL S93A; hIgG1; also called anti-ROR1 1015M2-C9(L: S93A) hIgG1) VH: QVQLVQSGGGVVQPGRSLRLSCAASGFTFSSYGMHWVRQAPGKGLEWVAIMWYDGSDKDYADSVKGRFTISRDTSKNTLYLQMNSLRAEDTAVYYCAREQARSFDLWGRGTLVTVSS VL: DIVMTQSPSSLSASVGDRVTITCRASQTINNWLAWYQQKPGKAPKLLIYKASSLESGVPSRFSGSGSGTEFTLTISSLQPDDFATYYCQQYNAYSPMYTFGQGTKVEIKR | 5020 MFI | 43800 MFI | 0.757 | 0.000122 s⁻¹
PR002566 (antibody, human IgG1, kappa, V domains shown, PR001354 variant: VH D54E, VL S93A; hIgG1; also called anti-ROR1 1015M2-C9(H: D54E; L: S93A) hIgG1) VH: QVQLVQSGGGVVQPGRSLRLSCAASGFTFSSYGMHWVRQAPGKGLEWVAIMWYEGSDKDYADSVKGRFTISRDTSKNTLYLQMNSLRAEDTAVYYCAREQARSFDLWGRGTLVTVSS VL: DIVMTQSPSSLSASVGDRVTITCRASQTINNWLAWYQQKPGKAPKLLIYKASSLESGVPSRFSGSGSGTEFTLTISSLQPDDFATYYCQQYNAYSPMYTFGQGTKVEIKR | 4630 MFI | 43300 MFI | 0.663 | 0.000135 s⁻¹
